Data set [1] has as its target T1, SRSF1 RRM1+2 (ASF/SF2) (UniProt Q07955 1-196). Briefly: fluorescence anisotropy.
Data set [2] has as its target T1, SRSF1 RRM1+2 (ASF/SF2). Briefly: competition.
The target of data set [3] is T1, SRSF1 RRM1+2 (ASF/SF2). The data set can be described thus: competition. The source holds these as a separate data set.

Some results are limits rather than exact numbers.

T1 sequence (Q07955 1-196): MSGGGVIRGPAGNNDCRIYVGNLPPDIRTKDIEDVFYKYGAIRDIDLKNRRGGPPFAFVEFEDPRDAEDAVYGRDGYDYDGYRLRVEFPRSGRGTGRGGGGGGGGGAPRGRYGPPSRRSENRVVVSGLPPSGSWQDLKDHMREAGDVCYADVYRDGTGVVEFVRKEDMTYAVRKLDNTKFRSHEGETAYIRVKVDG

B1: SRSF1 canonical motif RNA (ssRNA)
RNA: AAAUCAGAGGAAAA
Take B1: in data set [1], the Kd amounted to 21 ± 3 nM.

B2: (G4C2)4 unlabeled, folded without K+ (ssRNA)
RNA: GGGGCCGGGGCCGGGGCCGGGGCC
In data set [2], B2 registered a Kd of less than 21 nM.

B3: (A4U2)4 unlabeled (ssRNA)
RNA: AAAAUUAAAAUUAAAAUUAAAAUU
In data set [3], B3 returned a Kd of roughly 200 nM.

Source of the values: PMC11983130.
